Patent US20140363416

Tests used:
[1] = test system: GST-ATF2 fusion protein (Cell Signaling)
[2] = molecular target: His/TF-tagged-XBP1s (recombinant XBP1s fusion protein purified from E. coli) (UniProt O35426)

activated recombinant p38α MAPK (Cell Signaling)
in vitro kinase assay, phosphorylation of the control substrate [1]: activated recombinant p38 MAPK is fully functional and phosphorylates ATF2
in vitro kinase assay, immunoblotting with phospho-specific antibodies for p-XBP1s^Thr48 and p-XBP1s^Ser61 [2]: p38 MAPK directly phosphorylates XBP on Thr48 and Ser61 residues in the in vitro kinase assay
in vitro kinase assay, incorporated 32P (phosphorylation) by autoradiography [2]: Incubation of XBP1s with activated recombinant p38 MAPK significantly increased phosphorylation of XBP1s
